Test results from US20190248900A1 (Y BIOLOGICS, published 2019).
Positions count from the first letter of the chain named.

T1: FZD10 (Homo sapiens (Human), UniProt Q9ULW2 21-225)
T1 sequence: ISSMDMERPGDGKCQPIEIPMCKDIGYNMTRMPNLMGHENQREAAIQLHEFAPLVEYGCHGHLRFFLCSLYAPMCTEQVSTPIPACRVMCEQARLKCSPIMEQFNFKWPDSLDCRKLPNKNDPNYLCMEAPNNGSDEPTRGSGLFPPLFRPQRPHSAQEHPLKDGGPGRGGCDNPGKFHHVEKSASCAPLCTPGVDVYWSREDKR

T2: C2orf28 (Homo sapiens (Human), UniProt Q6UW56 31-199)
T2 sequence: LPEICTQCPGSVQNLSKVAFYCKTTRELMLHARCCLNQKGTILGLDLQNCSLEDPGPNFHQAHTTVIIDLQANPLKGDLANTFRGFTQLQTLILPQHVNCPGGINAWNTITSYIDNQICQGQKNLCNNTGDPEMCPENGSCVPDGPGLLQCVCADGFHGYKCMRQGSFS

T3: AGR2 (Homo sapiens (Human), UniProt O95994 21-175)
T3 sequence: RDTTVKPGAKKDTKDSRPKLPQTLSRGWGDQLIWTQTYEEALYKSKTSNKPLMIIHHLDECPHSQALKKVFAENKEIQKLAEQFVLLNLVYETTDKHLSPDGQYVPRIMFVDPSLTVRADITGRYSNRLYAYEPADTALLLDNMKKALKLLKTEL

T4: LRTM1 (Homo sapiens (Human), UniProt Q9HBL6 28-288)
T4 sequence: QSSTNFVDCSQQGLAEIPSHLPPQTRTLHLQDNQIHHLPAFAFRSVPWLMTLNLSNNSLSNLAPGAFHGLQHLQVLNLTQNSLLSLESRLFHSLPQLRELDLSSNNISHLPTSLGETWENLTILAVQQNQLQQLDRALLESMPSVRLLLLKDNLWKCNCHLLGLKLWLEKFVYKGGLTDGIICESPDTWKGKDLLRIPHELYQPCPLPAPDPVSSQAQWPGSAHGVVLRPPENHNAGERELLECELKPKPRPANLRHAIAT

T5: LRRN4 (Homo sapiens (Human), UniProt Q8WUT4 19-679)
T5 sequence: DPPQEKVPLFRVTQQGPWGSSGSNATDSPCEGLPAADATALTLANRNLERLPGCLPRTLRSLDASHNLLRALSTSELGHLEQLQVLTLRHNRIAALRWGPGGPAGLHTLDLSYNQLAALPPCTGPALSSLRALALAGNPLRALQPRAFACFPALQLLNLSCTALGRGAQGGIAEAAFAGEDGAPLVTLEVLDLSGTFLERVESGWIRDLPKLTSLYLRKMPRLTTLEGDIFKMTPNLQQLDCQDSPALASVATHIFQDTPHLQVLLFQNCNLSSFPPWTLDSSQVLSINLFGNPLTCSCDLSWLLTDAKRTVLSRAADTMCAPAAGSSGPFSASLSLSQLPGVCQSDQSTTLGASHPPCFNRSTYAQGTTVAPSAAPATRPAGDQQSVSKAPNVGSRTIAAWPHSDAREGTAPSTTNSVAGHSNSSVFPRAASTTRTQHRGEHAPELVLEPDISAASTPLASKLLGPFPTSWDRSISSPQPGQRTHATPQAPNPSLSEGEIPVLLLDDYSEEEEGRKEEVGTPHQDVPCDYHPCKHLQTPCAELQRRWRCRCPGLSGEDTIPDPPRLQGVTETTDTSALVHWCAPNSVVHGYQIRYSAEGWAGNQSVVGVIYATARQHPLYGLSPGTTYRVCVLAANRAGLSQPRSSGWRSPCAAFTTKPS

T6: TMEFF2 (Homo sapiens (Human), UniProt Q9UIK5 41-320)
T6 sequence: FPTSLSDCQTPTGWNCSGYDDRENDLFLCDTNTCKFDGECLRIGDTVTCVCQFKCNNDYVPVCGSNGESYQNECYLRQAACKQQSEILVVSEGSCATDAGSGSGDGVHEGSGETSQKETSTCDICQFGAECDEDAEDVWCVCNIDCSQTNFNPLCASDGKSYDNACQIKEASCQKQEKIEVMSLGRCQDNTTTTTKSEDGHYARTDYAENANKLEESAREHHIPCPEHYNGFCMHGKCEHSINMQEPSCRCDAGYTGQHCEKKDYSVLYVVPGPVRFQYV

T7: ICOSLG (Homo sapiens (Human), UniProt O75144 19-256)
T7 sequence: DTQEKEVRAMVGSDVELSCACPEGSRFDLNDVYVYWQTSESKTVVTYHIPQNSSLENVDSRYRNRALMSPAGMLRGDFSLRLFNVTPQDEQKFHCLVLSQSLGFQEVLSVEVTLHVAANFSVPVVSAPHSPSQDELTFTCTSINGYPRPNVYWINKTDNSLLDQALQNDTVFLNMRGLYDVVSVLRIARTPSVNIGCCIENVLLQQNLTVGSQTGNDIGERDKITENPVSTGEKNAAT

T8: BAMBI (Homo sapiens (Human), UniProt Q13145 21-152)
T8 sequence: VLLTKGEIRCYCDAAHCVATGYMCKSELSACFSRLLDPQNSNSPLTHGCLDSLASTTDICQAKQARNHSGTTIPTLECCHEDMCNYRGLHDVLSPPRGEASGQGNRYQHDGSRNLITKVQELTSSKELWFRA

T9: OPTC (Homo sapiens (Human), UniProt Q9UBM4 20-332)
T9 sequence: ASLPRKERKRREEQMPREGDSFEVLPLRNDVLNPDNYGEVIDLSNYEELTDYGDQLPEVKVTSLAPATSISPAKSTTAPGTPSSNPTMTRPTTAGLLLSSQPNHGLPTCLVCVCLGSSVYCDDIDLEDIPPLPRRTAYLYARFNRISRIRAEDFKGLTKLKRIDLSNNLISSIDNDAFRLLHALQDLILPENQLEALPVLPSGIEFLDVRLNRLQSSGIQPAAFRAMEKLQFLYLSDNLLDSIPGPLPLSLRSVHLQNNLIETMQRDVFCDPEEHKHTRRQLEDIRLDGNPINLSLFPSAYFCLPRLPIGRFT

B1: PD1-41C9 (antibody, V domains shown)
VH: QMQLVESGGGVVQPGRSLRLSCAASGFTFSSYAMHWVRQAPGKGLEWVAVISYDGSNKYYADSVKGRFTISRDNSKNTLYLQMNRLRSEDTAVYYCTTTTFDSWGQGTLITVSS
VL: DIVMTQTPLSLPVTPGEAASISCRSSQSLLDSEDGNTYLDWYLQKPGQSPQLLIYTLSHRASGVPDRFSGSGSGTDFTLKISRVAAEDVGLYYCLQRMGFPYTFGQGTKLDIK
notes: scFv-phage in the screening ELISA; whole IgG in the other assays
B2: PD1-49A2 (antibody, V domains shown)
VH: B1 VH with M2V, S75P, R85S, S88A, Q106R, I110V
VL: B1 VL with T7S, A18P, L30F, E33D, A85E, L91I, L110V, D111E
notes: scFv-phage in the screening ELISA; whole IgG in the other assays; also called Parent 49A2
B3: PD1-45D6 (antibody, V domains shown)
VH: QVQLVESGGGVVQPGRSLRLSCAASGFTFSSYAMHWVRQVPGKGLEWVAVISYDGNDKYYADSVKGRFTISRDNSKNTLYLQMNSLRAEDTAVYYCVPTTFEYWGQGSQVTVSS
VL: DIVMTQTPLSLPVTPGEAASISCRSSQSLLDSDDGKTYLDWYLQKPGQSPQLLIYTLSYRASGVPDRFSGSGSGTEFNLRISRVEAEDVGIYYCMQRVEFPFTFGQGTKLDIK
notes: as for B1

Molecular target: T1, FZD10
Assay: ELISA

Row | Binder | binding result
1 | B1 | no binding (tested: 1 ug/ml)
2 | B2 | no binding (tested: 1 ug/ml)
3 | B3 | no binding (tested: 1 ug/ml)

Molecular target: T2, C2orf28
Assay: ELISA

Row | Binder | binding result
4 | B1 | no binding (tested: 1 ug/ml)
5 | B2 | no binding (tested: 1 ug/ml)
6 | B3 | no binding (tested: 1 ug/ml)

Molecular target: T3, AGR2
Assay: ELISA

Row | Binder | binding result
7 | B1 | no binding (tested: 1 ug/ml)
8 | B2 | no binding (tested: 1 ug/ml)
9 | B3 | no binding (tested: 1 ug/ml)

Molecular target: T4, LRTM1
Assay: ELISA

Row | Binder | binding result
10 | B1 | no binding (tested: 1 ug/ml)
11 | B2 | no binding (tested: 1 ug/ml)
12 | B3 | no binding (tested: 1 ug/ml)

Molecular target: T5, LRRN4
Assay: ELISA

Row | Binder | binding result
13 | B1 | no binding (tested: 1 ug/ml)
14 | B2 | no binding (tested: 1 ug/ml)
15 | B3 | no binding (tested: 1 ug/ml)

Molecular target: T6, TMEFF2
Assay: ELISA

Row | Binder | binding result
16 | B1 | no binding (tested: 1 ug/ml)
17 | B2 | no binding (tested: 1 ug/ml)
18 | B3 | no binding (tested: 1 ug/ml)

Molecular target: T7, ICOSLG
Assay: ELISA

Row | Binder | binding result
19 | B1 | no binding (tested: 1 ug/ml)
20 | B2 | no binding (tested: 1 ug/ml)
21 | B3 | no binding (tested: 1 ug/ml)

Molecular target: T8, BAMBI
Assay: ELISA

Row | Binder | binding result
22 | B1 | no binding (tested: 1 ug/ml)
23 | B2 | no binding (tested: 1 ug/ml)
24 | B3 | no binding (tested: 1 ug/ml)

Molecular target: T9, OPTC
Assay: ELISA

Row | Binder | binding result
25 | B1 | no binding (tested: 1 ug/ml)
26 | B2 | no binding (tested: 1 ug/ml)
27 | B3 | no binding (tested: 1 ug/ml)
